Laboratory results: US20230036503A1, “Fusion Protein, Amino Acid Sequence Thereof, Coding Nucleotide Sequence Thereof, Preparation Method Thereof and Use Thereof” (priority 2019, published 2023)

System: Fusarium graminearum
Format: in vivo
Conditions: corn leaves, 100 nM

B1: His-MP7: heptapeptide fusion protein, SEQ ID NO: 15: elf18, csp22, flg22, flgII-28, nlp20, pep1, pip1 in sequence, linkers GAG and AGA, HIS tag (protein)
chain: MGSSHHHHHHSSGLVPRGSHMASMTGGQQMGRDPNSSSVDKLSKEKFERTKPHVNVGTIGGAGAVGTVKWFNAEKGFGFITPDDGAGAQRLSTGSRINSAKDDAAGLQIAGAGESTNILQRMRELAVQSRNDSNSATDREAGAGAIMYSWYFPKDSPVTGLGHRAGAATKVKAKQRGKEKVSSGRPGQHNAGARLASGPSPRGRGH
modifications: his-MP7
Q: B1 was tested. Which scab area percentage (3-4 days, untreated 12.3%) did it give?
A: 3.6%

Q: What about the “infection rate of Fusarium graminearum lowered by” value (versus untreated) of the same molecule?
A: 70.8%
